# How the values were obtained:
# [1] = target: T1, HIV-1 reverse transcriptase (Human immunodeficiency virus 1, UniProt P03366;P03366 P03366:600-1159,P03366:600-1039); assay: filter; HRT buffer, 6 mM MgCl2, 37 C; conditions: tags: expressed in E. coli, purified per Davies et al. 1991, label: 5'-32P
# Method: Nitrocellulose Filter Binding Assays. Oligonucleotides bound to proteins can be effectively separated from the unbound species by filtration through nitrocellulose membrane filters (Yarus, M. and Berg, P. (1970) Anal. Biochem. 35:450–465; Lowary, P. T. and Uhlenbeck, O. C. (1987) Nucleic Acids Res. 15:10483–10493; Tuerk, C. and Gold, L. (1990) Science 249:505–510). The affinity of the random ssDNA library for HIV-1 RT was determined using a protein excess nitrocellulose filter binding assay as described in Carey, J. et al. (1983) Biochemistry 22:2601–2609. Selections were performed with a saturating ssDNA concentration to promote competition among DNA ligands for a limited number of available target binding sites.
# (§1) Binding Curves Confirm High Affinity of Individual Ligands. Affinity values of each of the eight chosen isolates for HIV-1 RT were measured using the filter binding assay described in Example 1 (FIGS. 7A–C). […] Differences in maximum percent bound likely reflect competing ligand structures with lower affinity. […] Indicated dissociation constants were determined as in Example 1.
# [2] = target: T1, HIV-1 reverse transcriptase; assay: inhibition; Ki', RNA-dependent DNA polymerase activity; conditions: tags: expressed in E. coli, purified per Davies et al. 1991
# Source text: (§2) Assay For Inhibition of RNA-Dependent DNA Polymerase Activity. A substrate for the RNA-dependent DNA polymerase activity of HIV-1 RT was assembled by annealing an 18 nucleotide, 5' end-labeled DNA primer to a 30 nucleotide RNA template with a complementary 3' end (see FIG. 10), and purifying the duplex on a 12% non-denaturing acrylamide gel. The primer sequence matched the 3' terminal 18 nucleotides of tRNA^{Lys,3}, responsible for priming minus-strand DNA synthesis of the HIV-1 genome, and the template sequence paralleled the HIV-1 genomic primer binding site and downstream 12 nucleotides. A dilution series of inhibitory ssDNA ligand (to give a final concentration of 0, 1, 3, 9, 27, or 81 nM) was denatured in HRT Buffer at 70° C. for 5 minutes and allowed to renature slowly at 20° C. The primer:template substrate was added to a final concentration of 40 nM, along with dNTP's at 400 μM. The 10 μl reaction was initiated with the addition of either HIV-1, AMV, or MMLV-RT (to give a final concentration of 10 nM), allowed to proceed for 5 minutes at 37° C., and terminated with one volume of formamide. Extension products were separated on an 8% denaturing acrylamide gel and quantitated with an Ambis radioanalytic imager.
# The ability of each of the 8 isolates to inhibit the RNA-dependent DNA polymerase activity of HIV-1 RT was assayed by measuring the decrease in extension product formation from a primer::template substrate as a function of inhibitor concentration (FIGS. 10A–10E). The substrate for the inhibition assay was a DNA:RNA heteroduplex consisting of an 18 nucleotide end-labeled DNA primer (SEQ ID NO: 74) identical in sequence to the 3' end of tRNA^{Lys,3} annealed to a 30 nucleotide RNA template (SEQ ID NO: 75) whose sequence matches the genomic primer binding site and the first twelve transcribed nucleotides. Extension reactions were performed as described in Example 1 in the presence of 0, 81, 27, 9, 3, and 1 nM inhibitor as indicated in FIG. 10.
# [3] = target: T1, HIV-1 reverse transcriptase; assay: inhibition; Ki', RNA-dependent DNA polymerase activity, 10 nM RT, 40 nM substrate, 37 C; conditions: tags: expressed in E. coli, purified per Davies et al. 1991; label: 5'-32P; internal loop (AA opposite CG) helix
# Source text: as §2, with “imager. […]” for “imager.”
# [4] = target: T1, HIV-1 reverse transcriptase; assay: filter; competition against RT1 gave Kc 3 nM (Example 5, FIG. 14); conditions: tags: expressed in E. coli, purified per Davies et al. 1991; pseudoknot
# Method: 15:10483–10493; Tuerk, C. and Gold, L. (1990) Science 249:505–510). The affinity of the random ssDNA library for HIV-1 RT was determined using a protein excess nitrocellulose filter binding assay as described in Carey, J. et al. (1983) Biochemistry 22:2601–2609. Selections were performed with a saturating ssDNA concentration to promote competition among DNA ligands for a limited number of available target binding sites.
# as §1
# [5] = target: T1, HIV-1 reverse transcriptase; assay: filter; first 49 nt of RT1; conditions: tags: expressed in E. coli, purified per Davies et al. 1991
binder,measurement,setting,value
RT6 (ssDNA) DNA: ATCCGCCTGATTAGCGATACTCAGGCGTTAGGGAAGGGCGTCGAAAGCAGGGTGGGACTTGAGCAAAATCACCTGCAGGGG,Kd,[1],5 nM
same,Ki,[2]; label: 5'-32P,30 nM
RT8 (ssDNA) DNA: ATCCGCCTGATTAGCGATACTAGCCAGTCAAGTTAATGGGTGCCATGCAGAAGCAACTTGAGCAAAATCACCTGCAGGGG,Ki,"[2]; label: 5'-32P, internal loop variant (CAA opposite TAG)",13 nM
RT4 (ssDNA) DNA: ATCCGCCTGATTAGCGATACTTTAGCAAAGTTGAAGCCGGACTAACAAGCTCTACGACTTGAGCAAAATCACCTGCAGGGG,Ki,"[2]; label: 5'-32P, internal loop variant (AA opposite AG)",4.1 nM
RT10 (ssDNA) DNA: ATCCGCCTGATTAGCGATACTTATTTGCCCTTGCAGGCCGCAGGAGTGCTAGCAGTACTTGAGCAAAATCACCTGCAGGGG,Ki,"[2]; label: 5'-32P, intramolecular primer:template junction",62 nM
RT1 (ssDNA) DNA: ATCCGCCTGATTAGCGATACTCAGAAGGATAAACTGTCCAGAACTTGGAATATATCACTTGAGCAAAATCACCTGCAGGGG,Kd,[1]; internal loop (AA opposite CG) helix,~1 nM
same,Ki,[3],0.3 nM
RT36 (ssDNA) DNA: ATCCGCCTGATTAGCGATACTAAGCTCTTAGTTGATGCGCGGTCAAAATTTAAGCTACTTGAGCAAAATCACCTGCAGGGG,Ki,"[2]; label: 5'-32P, internal loop variant (AA opposite A)",6.5 nM
RT26 (ssDNA) DNA: ATCCGCCTGATTAGCGATACTTACGTGAGCGTGCTGTCCCCTAAAGGTGATACGTCACTTGAGCAAAATCACCTGCAGGGG,Kd,[1]; intramolecular primer:template junction with internal loop (AA opposite CG),~1 nM
same,Ki,"[2]; label: 5'-32P, intramolecular primer:template junction with internal loop (AA opposite CG)",2.7 nM
GGUCCGAAGUGCAACGGGAAAAUGCACU (ssRNA) [RNA pseudoknot (RNA pk)],Kd,[4],5 nM
same,Ki,[2]; pseudoknot,4.7 nM
ATCCGCCTGAATAGCGATACTCAGAAGGATAAACTGTCCAGAACTTGGA (ssDNA) [RT1t49],Kd,[5],4 nM

# Reference: patent publication US5786462, “High affinity ssDNA ligands of HIV-1 reverse transcriptase” (NeXstar Pharmaceuticals, Inc.)
